# B1: N-terminally 3xFLAG-tagged LarA [C. crescentus] / Lon, endogenous [C. crescentus (endogenous in WT cells)] (parent complex)
# chain 1: MTPSTQHSRPLTSEAFAALGAPALVYVRPIKAAEILADAPEGVEDLDLSPDQTLYAVCRADGERLAVLIDRDTAIAAALAHELAPVSVH
# chain 2: MSELRTLPVLPLRDIVVFPHMVVPLFVGRDKSVRALEEVMRGDKQILLVTQKNSADDDPAPGDIFEVGVLATVLQLLKLPDGTVKVLVEGKARAAVVSFTDQESYYEAQIGEVSEDDGAGPEAEALSRAVVEQFENYVKLNKKVPPEALASIPQIAEPGKLADSIAAHLSVKIGDKQNLLEIFDVVKRLEKVFALMEGEISVLQVEKKIRSRVKRQMEKTQREYYLNEQMKAIQRELGDPDDARDELIDLEKRIKKTKLSKEARTKAESELKKLRNMSPMSAESTVVRNYLDWLLSIPWGKAKTKKIDLVESEGILDADHYGLEKVKERILEYLAVQARTNSLKGPILCLVGPPGVGKTSLGKSIAKATGREFVRMSLGGVRDEAEIRGHRRTYIGSMPGKVVQSMKKAKTTNAFVLLDEIDKMGSDYRGDPASALLEVLDPSQNSTFGDHYLEVDYDLSQVMFVTTANSLNMPQPLLDRMEIIRIPGYTEDEKLEIAKRHILPKLAKDHGLKPAEFIVPDKAIRDLIRYYTREAGVRSLERELGALARKTVRDLAREKVASITIDDERLAKYAGVKKYRYGETDEVDQVGIVTGLAWTEFGGDILTIEAVKMPGKGRMQITGNLKDVMKESIAAANSYVRSRALQFGIKPPVFEKTDVHIHVPDGATPKDGPSAGIAMALAMVSVLTGIPIRKDIAMTGEITLRGRVTAIGGLKEKLLAALRSGVKTVLIPQENEKDLADVPQTVKDGLEIIPVSTVDEVLKHALTGPLTPVEWNEAEEPITTSAKKDDGDSDAMLTH
# Variants of: B1
# Assay: co-immunoprecipitation (α-FLAG IP, anti-Lon immunoblot quantified); WT cells, Pxyl-3xFLAG-larA variants induced one hour with xylose prior to cell lysis and IP; n = 3; parent: 4.5; read off a plot
row,response,Variant
1,~1.7 relative Lon level (vs VC = 1),"chain 1 V86A, chain 1 V88A"
2,~1 relative Lon level (vs VC = 1),"chain 1 V88D, chain 1 H89D"
